Measurements reported in PMC3997080.

Molecular target: αB-crystallin deletion mutant lacking residues 54FLRAPSWF61 (αBΔ54–61) (human) (UniProt P02511)
Assay: SEC-MALS

Work on “αB-crystallin deletion mutant lacking residues 54FLRAPSWF61 (αBΔ54–61) (from UniProt P02511 1-175) (natural protein)” yielded a stoichiometry N (subunits/oligomer) of 20.
